What follows are substances tested against human insulin receptor IR-A (solubilised holoreceptor) (human) (UniProt P06213) (assay: competition SPA: displacement of [125I-A14Y]-human insulin from solubilised human IR-A, relative to human insulin standard).
With “A21G(GPEQ)50, desB30 human insulin (from UniProt P01308) (ligand)” the Receptor binding (hIRA) SPA, sup % relative to HI (% relative to HI) was 8.18. For “A21G, A22A, A23Q, A24P(GAQP)49, desB30 human insulin (from UniProt P01308) (ligand)”, the Receptor binding (hIRA) SPA, sup % relative to HI (% relative to HI) was 4.38. With “A21G(GPEH)50, desB30 human insulin (from UniProt P01308) (ligand)” the Receptor binding (hIRA) SPA, sup % relative to HI (% relative to HI) was 10.1. Work on “A21G(GEPQ)50, desB30 human insulin (from UniProt P01308) (ligand)” yielded a Receptor binding (hIRA) SPA, sup % relative to HI (% relative to HI) of 8.24. “A14E, A21G(GQAP)150, B25H, desB30 human insulin (from UniProt P01308) (ligand)” was tested, and the Receptor binding (hIRA) SPA, sup % relative to HI (% relative to HI) was 2.1. “A21G, A22Q, A23P(GQP)66, desB30 human insulin (from UniProt P01308) (ligand)” gave a Receptor binding (hIRA) SPA, sup % relative to HI (% relative to HI) of 0.08. “A21G(GEQ)67, desB30 human insulin (from UniProt P01308) (ligand)” showed a Receptor binding (hIRA) SPA, sup % relative to HI (% relative to HI) of 8.48. With “A21G, A22A, A23Q, A24P(GAQP)37, desB30 human insulin (from UniProt P01308) (ligand)” the Receptor binding (hIRA) SPA, sup % relative to HI (% relative to HI) was 5.71. “A21Q(GQEP)50, desB30 human insulin (from UniProt P01308) (ligand)” was tested, and the Receptor binding (hIRA) SPA, sup % relative to HI (% relative to HI) was 8.54. “A21G(GQAP)100, desB30 human insulin (from UniProt P01308) (ligand)” showed a Receptor binding (hIRA) SPA, sup % relative to HI (% relative to HI) of 3.19. “A21G(GPHE)50, desB30 human insulin (from UniProt P01308) (ligand)” was tested, and the Receptor binding (hIRA) SPA, sup % relative to HI (% relative to HI) was 7.85. “A14E, A21G(GQEP)50, B25H, desB30 human insulin (from UniProt P01308) (ligand)” gave a Receptor binding (hIRA) SPA, sup % relative to HI (% relative to HI) of 3. Work on “A21G(GQEH)50, desB30 human insulin (from UniProt P01308) (ligand)” yielded a Receptor binding (hIRA) SPA, sup % relative to HI (% relative to HI) of 5.99. “A21G(GQAP)56, desB30 human insulin (from UniProt P01308) (ligand)” was tested, and the Receptor binding (hIRA) SPA, sup % relative to HI (% relative to HI) was 3.49. With “A21Q(GEHP)50, desB30 human insulin (from UniProt P01308) (ligand)” the Receptor binding (hIRA) SPA, sup % relative to HI (% relative to HI) was 5.41. “A14E, A21G(GAPQ)50, B25H, desB30 human insulin (from UniProt P01308) (ligand)” gave a Receptor binding (hIRA) SPA, sup % relative to HI (% relative to HI) of 3.13. Work on “A21G(GQAP)125, desB30 human insulin (from UniProt P01308) (ligand)” yielded a Receptor binding (hIRA) SPA, sup % relative to HI (% relative to HI) of 2.65. “A14E, A21G(GEPH)50, B25H, desB30 human insulin (from UniProt P01308) (ligand)” was tested, and the Receptor binding (hIRA) SPA, sup % relative to HI (% relative to HI) was 3.3. “A21G(GAQP)50, desB30 human insulin (from UniProt P01308) (ligand)” gave a Receptor binding (hIRA) SPA, sup % relative to HI (% relative to HI) of 4.66. Substance “A21G(GQAP)62, desB30 human insulin (from UniProt P01308) (ligand)” has a Receptor binding (hIRA) SPA, sup % relative to HI (% relative to HI) of 4.45. In the case of “A21Q(GQAP)50, desB30 human insulin (from UniProt P01308) (ligand)”, the Receptor binding (hIRA) SPA, sup % relative to HI (% relative to HI) is reported as 6.55. “A21G(GQEPGQHP)25, desB30 human insulin (from UniProt P01308) (ligand)” was tested, and the Receptor binding (hIRA) SPA, sup % relative to HI (% relative to HI) was 4.06. For “A21G(GPQA)50, desB30 human insulin (from UniProt P01308) (ligand)”, the Receptor binding (hIRA) SPA, sup % relative to HI (% relative to HI) was 5.05. Substance “A21G(GQHE)50, desB30 human insulin (from UniProt P01308) (ligand)” has a Receptor binding (hIRA) SPA, sup % relative to HI (% relative to HI) of 7.83. “A21G(GPQE)50, desB30 human insulin (from UniProt P01308) (ligand)” showed a Receptor binding (hIRA) SPA, sup % relative to HI (% relative to HI) of 6.53. Work on “A21G(GQA)67, desB30 human insulin (from UniProt P01308) (ligand)” yielded a Receptor binding (hIRA) SPA, sup % relative to HI (% relative to HI) of 4.11. In the case of “A21G(GPAQ)50, desB30 human insulin (from UniProt P01308) (ligand)”, the Receptor binding (hIRA) SPA, sup % relative to HI (% relative to HI) is reported as 6.5. For “A21G(GAQ)67, desB30 human insulin (from UniProt P01308) (ligand)”, the Receptor binding (hIRA) SPA, sup % relative to HI (% relative to HI) was 6.99. Work on “A21G(GQAP)50, desB30 human insulin (from UniProt P01308) (ligand)” yielded a Receptor binding (hIRA) SPA, sup % relative to HI (% relative to HI) of 4.56. “A21G(GQPE)50, desB30 human insulin (from UniProt P01308) (ligand)” was tested, and the Receptor binding (hIRA) SPA, sup % relative to HI (% relative to HI) was 4.09. “A21G, A22A, A23Q, A24P(GAQP)62, desB30 human insulin (from UniProt P01308) (ligand)” gave a Receptor binding (hIRA) SPA, sup % relative to HI (% relative to HI) of 3.89. Substance “A21G, A22P, A23A, A24Q(GPAQ)49, desB30 human insulin (from UniProt P01308) (ligand)” has a Receptor binding (hIRA) SPA, sup % relative to HI (% relative to HI) of 5.7. Work on “A21G, A22Q, A23P, A24A(GQPA)49, desB30 human insulin (from UniProt P01308) (ligand)” yielded a Receptor binding (hIRA) SPA, sup % relative to HI (% relative to HI) of 5.53. With “A21G(GEH)67, desB30 human insulin (from UniProt P01308) (ligand)” the Receptor binding (hIRA) SPA, sup % relative to HI (% relative to HI) was 4.85. With “A21G(GQAP)37, desB30 human insulin (from UniProt P01308) (ligand)” the Receptor binding (hIRA) SPA, sup % relative to HI (% relative to HI) was 5.33. “A21G(GHPE)50, desB30 human insulin (from UniProt P01308) (ligand)” showed a Receptor binding (hIRA) SPA, sup % relative to HI (% relative to HI) of 3.47. “A21G(GQAP)69, desB30 human insulin (from UniProt P01308) (ligand)” was tested, and the Receptor binding (hIRA) SPA, sup % relative to HI (% relative to HI) was 4.2. Substance “A21G(GHEP)50, desB30 human insulin (from UniProt P01308) (ligand)” has a Receptor binding (hIRA) SPA, sup % relative to HI (% relative to HI) of 4.67. “A21G(GQPA)50, desB30 human insulin (from UniProt P01308) (ligand)” showed a Receptor binding (hIRA) SPA, sup % relative to HI (% relative to HI) of 4.26. “A21Q(GAPQ)50, desB30 human insulin (from UniProt P01308) (ligand)” gave a Receptor binding (hIRA) SPA, sup % relative to HI (% relative to HI) of 7.52. “A14E, A21G(GEHP)50, B25H, desB30 human insulin (from UniProt P01308) (ligand)” showed a Receptor binding (hIRA) SPA, sup % relative to HI (% relative to HI) of 3.1. “A21G(GQE)67, desB30 human insulin (from UniProt P01308) (ligand)” was tested, and the Receptor binding (hIRA) SPA, sup % relative to HI (% relative to HI) was 6.6. Substance “A21G(GQAP)44, desB30 human insulin (from UniProt P01308) (ligand)” has a Receptor binding (hIRA) SPA, sup % relative to HI (% relative to HI) of 6.34. In the case of “A21G(GQAP)150, desB30 human insulin (from UniProt P01308) (ligand)”, the Receptor binding (hIRA) SPA, sup % relative to HI (% relative to HI) is reported as 2.87. With “A14E, A21G(GQAP)75, B25H, desB30 human insulin (from UniProt P01308) (ligand)” the Receptor binding (hIRA) SPA, sup % relative to HI (% relative to HI) was 2.41. For “A21G(GEQP)50, desB30 human insulin (from UniProt P01308) (ligand)”, the Receptor binding (hIRA) SPA, sup % relative to HI (% relative to HI) was 9.04. In the case of “A21G(GQAP)31, desB30 human insulin (from UniProt P01308) (ligand)”, the Receptor binding (hIRA) SPA, sup % relative to HI (% relative to HI) is reported as 4.55. In the case of “A21G, A22P, A23Q, A24A(GPQA)49, desB30 human insulin (from UniProt P01308) (ligand)”, the Receptor binding (hIRA) SPA, sup % relative to HI (% relative to HI) is reported as 5.26. For “A21G(GQAP)75, desB30 human insulin (from UniProt P01308) (ligand)”, the Receptor binding (hIRA) SPA, sup % relative to HI (% relative to HI) was 4.19. Work on “A21Q(GEPH)50, desB30 human insulin (from UniProt P01308) (ligand)” yielded a Receptor binding (hIRA) SPA, sup % relative to HI (% relative to HI) of 5.09. “A21G, A22A, A23P, A24Q(GAPQ)49, desB30 human insulin (from UniProt P01308) (ligand)” gave a Receptor binding (hIRA) SPA, sup % relative to HI (% relative to HI) of 9.98. “A14E, A21G(GQAP)50, B25H, desB30 human insulin (from UniProt P01308) (ligand)” gave a Receptor binding (hIRA) SPA, sup % relative to HI (% relative to HI) of 3.15. For “A21G, B1F(GQAP)50, desB30 human insulin (from UniProt P01308) (ligand)”, the Receptor binding (hIRA) SPA, sup % relative to HI (% relative to HI) was 8.38. “A21G, B1F(GQAP)100, desB30 human insulin (from UniProt P01308) (ligand)” gave a Receptor binding (hIRA) SPA, sup % relative to HI (% relative to HI) of 4.98. In the case of “A21G(GHEQ)50, desB30 human insulin (from UniProt P01308) (ligand)”, the Receptor binding (hIRA) SPA, sup % relative to HI (% relative to HI) is reported as 6.7. “A21G(GEQH)50, desB30 human insulin (from UniProt P01308) (ligand)” showed a Receptor binding (hIRA) SPA, sup % relative to HI (% relative to HI) of 7.77. “A21G, A22Q, A23A, A24P(GQAP)49, desB30 human insulin (from UniProt P01308) (ligand)” was tested, and the Receptor binding (hIRA) SPA, sup % relative to HI (% relative to HI) was 4.92. “A21G(GHQE)50, desB30 human insulin (from UniProt P01308) (ligand)” was tested, and the Receptor binding (hIRA) SPA, sup % relative to HI (% relative to HI) was 9.41.

Source: patent US11208452B2
